Experimental data reported in US7910100B2, “Antibodies directed to the mammalian EAG1 ion channel protein” (Max-Planck-Gesellschaft zur Forderung der Wissen, priority 2004, dated 2011).

Columns and labels:
[1] = biological target: T1, endogenous Eag1 antigen in MCF7 breast cancer and IPC-298 melanoma cells (Homo sapiens, UniProt O95259); experiment: Immunofluorescence detection of Eag1 antigen in human tumor cells; format: cell-based; settings: 2 μg/ml antibody
T1 construct: endogenous in cells; host or cells: MCF7 breast cancer cells, IPC-298 melanoma cells
T1 sequence (O95259 1-989): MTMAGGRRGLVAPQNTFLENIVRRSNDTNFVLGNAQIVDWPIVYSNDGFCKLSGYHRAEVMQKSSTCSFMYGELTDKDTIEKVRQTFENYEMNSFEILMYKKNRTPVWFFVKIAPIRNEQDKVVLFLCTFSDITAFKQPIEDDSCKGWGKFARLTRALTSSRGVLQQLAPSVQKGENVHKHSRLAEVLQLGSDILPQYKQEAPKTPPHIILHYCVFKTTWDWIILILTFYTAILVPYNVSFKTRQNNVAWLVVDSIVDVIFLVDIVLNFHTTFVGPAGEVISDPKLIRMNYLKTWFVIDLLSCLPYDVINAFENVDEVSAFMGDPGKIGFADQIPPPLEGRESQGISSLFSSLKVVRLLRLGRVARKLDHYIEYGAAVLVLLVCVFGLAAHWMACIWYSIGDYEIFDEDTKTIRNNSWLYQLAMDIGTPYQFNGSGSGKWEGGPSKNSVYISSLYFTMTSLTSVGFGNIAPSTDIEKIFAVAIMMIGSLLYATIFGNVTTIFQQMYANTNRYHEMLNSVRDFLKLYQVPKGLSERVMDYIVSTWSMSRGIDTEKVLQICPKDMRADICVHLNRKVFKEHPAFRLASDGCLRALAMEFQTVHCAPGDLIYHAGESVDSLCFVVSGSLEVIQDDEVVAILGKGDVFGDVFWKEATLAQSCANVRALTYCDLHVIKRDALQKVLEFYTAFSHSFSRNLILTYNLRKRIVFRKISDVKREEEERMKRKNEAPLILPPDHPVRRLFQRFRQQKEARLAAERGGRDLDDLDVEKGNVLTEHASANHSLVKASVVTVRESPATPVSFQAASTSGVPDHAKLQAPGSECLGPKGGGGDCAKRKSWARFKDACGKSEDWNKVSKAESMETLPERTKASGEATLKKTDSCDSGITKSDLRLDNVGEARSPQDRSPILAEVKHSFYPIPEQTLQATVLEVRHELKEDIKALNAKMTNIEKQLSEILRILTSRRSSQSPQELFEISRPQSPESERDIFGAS
Procedure: For detection of Eag1 antigen in human tumor cells an Immunofluorescence staining protocol was established. Glass-Chamber slides (Falcon) were pre-coated with 300 μl medium containing 10% FCS at 37° C. for 30 min. 40 000 MCF7 breast cancer cells/well and 40 000 IPC-298 melanoma cells/well were seeded on pre-coated glass chamber slides and cultured at 37° C. in 5% CO2 for 24 h. After removing the chambers, slides were washed with PBS and cells were fixed with 4% Paraformaldehyd (in PBS adjusted to pH 7.5 with 1 M NaOH) at 25° C. for 10 min. Slides were air dried and re-hydrated with PBS for 3 min (3×). Cells were permeabilized with 0.5% Triton-X 100 in PBS for 10 min at 25° C., slides were washed for 3 min in PBS (3×) and each well was blocked with 100 μl blocking buffer (5% FCS, 2.5% BSA in PBS) at 25° C. for 1 hours. 2 μg/ml anti-EAG1 antibody ImAb 4 diluted in 40 μl blocking buffer/well was incubated for 1 h at 25° C., washed 3× with PBS and 50 μl Alexa 546 goat anti-mouse IgG (Molecular Probes; diluted 1:200 in dilution buffer) was incubated as detection antibody for 1 h at 25° C. Slides were washed with PBS (3×), 50 μl DAPI (Roche; diluted 1:1000 in PBS) was added to each well and incubated at 25° C. for 5 min. […]
Staining of the anti-EAG1 antigen with ImAb 4 was analysed using a Fluorescence microscope at 573 nm.

[2] = biological target: T2, Eag1 currents (Homo sapiens, UniProt O95259); experiment: Whole cell patch clamp, Eag1 currents in transfected HEK293 cells; format: cell-based; settings: 300 nM, control antibody
T2 construct: expressed in transfected cells; host or cells: HEK293
T2 sequence (O95259 1-962 isoform O95259-2): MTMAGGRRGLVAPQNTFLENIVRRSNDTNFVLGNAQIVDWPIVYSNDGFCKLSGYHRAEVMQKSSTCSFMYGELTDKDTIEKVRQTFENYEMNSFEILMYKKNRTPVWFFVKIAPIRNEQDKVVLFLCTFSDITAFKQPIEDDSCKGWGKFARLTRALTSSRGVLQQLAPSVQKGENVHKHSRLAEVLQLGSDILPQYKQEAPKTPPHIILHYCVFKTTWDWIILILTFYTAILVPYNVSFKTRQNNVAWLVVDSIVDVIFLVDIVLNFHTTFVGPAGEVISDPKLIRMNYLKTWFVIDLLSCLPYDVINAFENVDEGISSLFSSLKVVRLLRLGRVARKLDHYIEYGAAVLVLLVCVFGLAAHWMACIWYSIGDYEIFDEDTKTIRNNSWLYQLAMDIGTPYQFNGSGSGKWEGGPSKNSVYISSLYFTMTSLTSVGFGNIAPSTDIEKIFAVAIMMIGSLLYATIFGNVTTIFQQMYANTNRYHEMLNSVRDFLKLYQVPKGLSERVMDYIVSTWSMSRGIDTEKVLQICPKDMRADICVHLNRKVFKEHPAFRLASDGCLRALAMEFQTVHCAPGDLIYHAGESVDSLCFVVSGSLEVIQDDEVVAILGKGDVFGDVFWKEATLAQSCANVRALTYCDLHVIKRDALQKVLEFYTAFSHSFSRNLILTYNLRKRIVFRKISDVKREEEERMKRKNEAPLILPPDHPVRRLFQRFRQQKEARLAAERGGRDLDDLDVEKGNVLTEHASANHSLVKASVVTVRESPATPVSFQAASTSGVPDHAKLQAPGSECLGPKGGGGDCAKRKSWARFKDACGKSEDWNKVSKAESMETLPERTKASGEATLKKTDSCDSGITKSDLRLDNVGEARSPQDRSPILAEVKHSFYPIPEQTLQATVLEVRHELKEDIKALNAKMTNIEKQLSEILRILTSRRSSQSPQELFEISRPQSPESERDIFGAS
Procedure: To characterize effective affinity and specificity of the antibodies, block of Eag1 currents by ImAb3 in transfected HEK293 cells was tested in the whole cell configuration of the patch clamp technique. Currents were elicited by the depicted (FIG. 18a) pulse protocol (depolarization to +40 mV from a holding potential of −80 mV). Once a stable current level had been achieved, the antibody was applied to the bath chamber at a concentration of 300 nM, (approx 45 μg/ml). […] The antibody and the peptide were incubated (1:1 representing approximately 50 times molar excess of the peptide) at room temperature for 1 h and the mixture was used as described for the antibody alone.

B1: ImAb4: mouse monoclonal anti-Eag1 antibody, IgG2b kappa; light chain SEQ ID NO: 2, heavy chain SEQ ID NO: 4 (antibody, listed as Mus musculus)
heavy: MRVLILLWLFTAFPGILSDVQLQESGPGLVKPSQSLSLTCTVTGYSITSDYAWNWIRQFPGNKLEWMGYISYSGSTIYNPSLKSRISITRDTSKNQFFLQLNSVTTEDTATYYCARFGNYGNTLNYWGQGTSVTVSSAKTTPPSVYPLAPGCGDTTGSSVTLGCLVKGYFPESVTVTWNSGSLSSSVHTFPALLQSGLYTMSSSVTVPSSTWPSQTVTCSVAHPASSTTVDKKLEPSGPISTINPCPPCKECHKCPAPNLEGGPSVFIFPPNIKDVLMISLTPKVTCVVVDVSEDDPDVQISWFVNNVEVHTAQTQTHREDYNSTIRVVSTLPIQHQDWMSGKEFKCKVNNKDLPSPIERTISKIKGLVRAPQVYILPPPAEQLSRKDVSLTCLVVGFNPGDISVEWTSNGHTEENYKDTAPVLDSDGSYFIYSKLNMKTSKWEKTDSFSCNVRHEGLKNYYLKKTISRSPGK
light: MKLPVRLLVLMFWIPASSSDVVMTQTPLSLPVSLGDQASISCRSSQSLVHSNGNTYLHWYLQKPGQSPKLLIYKVSNRFSGVPDRFSGSGSGTDFTLKISRVEAEDLGVYFCSQSTHVPPTFGGGTKLEIKRADAAPTVSIFPPSSEQLTSGGASVVCFLNNFYPKDINVKWKIDGSERQNGVLNSWTDQDSKDSTYSMSSTLTLTKDEYERHNSYTCEATHKTSTSPIVKSFNRNEC
How did the “preferential binding by cell stage” value [1] turn out when B1 was run?
The value was “preferentially binds to dividing human cancer cells”.

And the “binding to endogenous Eag1 antigen” value ([1]; fixed permeabilized cells)?
The value was “binds to endogenous Eag1 antigen in human cancer cells”.

And the “effect on current amplitudes” value [2]?
The value was “showed no effect on current amplitudes”.
